Values belong to the binder of their own block, whether it stands above or below them.
What was measured:
[1] = target: T1, recombinant human IL-17A (purchased from R&D Systems) (human, UniProt Q16552 24-155); experiment: cell-based or functional assay
[2] = target: T1, recombinant human IL-17A (purchased …); experiment: cell-based or functional assay; remark: listed apart in the source
[3] = target: T2, hIL-17A (analyte of the Biacore assay) (human, UniProt Q16552 24-155); experiment: SPR, Biacore (as in Example 6): antibody captured, hIL-17A as analyte
T2 construct: The Biacore method says only 'hIL-17A'; also called human IL-17A
T2 sequence (Q16552 24-155 limits assumed): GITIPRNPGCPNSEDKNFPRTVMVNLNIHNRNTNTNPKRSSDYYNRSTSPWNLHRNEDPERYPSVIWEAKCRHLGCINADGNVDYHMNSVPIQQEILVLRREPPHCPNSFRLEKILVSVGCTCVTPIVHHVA
Description: (§1) The specific experimental method was as follows: Amine Coupling Kit (GE healthcare) was used to activate CM5 sensor chips (GE healthcare) and recombinant Protein A/G (Thermo Pierce) was immobilized on the chip with an amount of 2000 RU. FC3 (Flow cell 3) was a reference channel, and FC4 (Flow cell 4) was a sample channel. […] The cycling conditions were as follows: the analyte was injected at 50 μl/min for 4 min in all channels of the FCs, the dissociation time was 20 min, and 6M guanidine hydrochloride (National Pharmaceutical Group Chemical Reagent Co., Ltd.) was injected at a rate of 10 μl/min for 30 s to surface regeneration. Then, difference between the signals of the captured antibodies and antibody-free controls were adopted to calculate binding kinetics and affinities using Biacore T200 Evaluation Software Ver 1.0.

[4] = target: T2, hIL-17A (analyte of the Biacore assay); experiment: SPR, Biacore T200: antibody captured on Protein A/G, hIL-17A as analyte
Description: as §1

T1 sequence (Q16552 24-155 limits assumed): as above

- IC50(pM), inhibition of IL-17A-induced IL-6 secretion from Hela cells, Experiment 1 [1]: 21.9 pM
- IC50(pM), inhibition of IL-17A-induced IL-6 secretion from Hela cells, Experiment 2 [1]: 27.4 pM
- IC50(pM), inhibition of IL-17A-induced IL-6 secretion from Hela cells, Experiment 3 [1]: 50.7 pM
- IC50, inhibition of IL-17A-induced IL-6 secretion from Hela cells [2]: 0.0606 nM
- Kd [3]: 0.0411 nM
- koff [3]: 9.45e-05 s⁻¹
- kon [3]: 2.3e+06 M⁻¹ s⁻¹
- Kd [4]: 0.0637 nM
- koff [4]: 3.28e-05 s⁻¹
- kon [4]: 515000 M⁻¹ s⁻¹
B1: Ixekizumab (antibody, V domains shown)
VH: QVQLVQSGAEVKKPGSSVKVSCKASGYSFTDYHIHWVRQAPGQGLEWMGVINPMYGTTDYNQRFKGRVTITADESTSTAYMELSSLRSEDTAVYYCARYDYFTGTGVYWGQGTLVTVSS
VL: DIVMTQTPLSLSVTPGQPASISCRSSRSLVHSRGNTYLHWYLQKPGQSPQLLIYKVSNRFIGVPDRFSGSGSGTDFTLKISRVEAEDVGVYYCSQSTHLPFTFGQGTKLEIKR

- IC50, inhibition of IL-17A-induced IL-6 secretion from Hela cells [2]: 0.0305 nM
- Kd [4]: 0.000299 nM
- koff [4]: 6.08e-08 s⁻¹
- kon [4]: 204000 M⁻¹ s⁻¹
B2: murine anti-human IL-17A monoclonal antibody No.120 (antibody, V domains shown)
VH: EVKLVESGGGLVRPGGTLKLSCAASGFTFSSFDMSWGRQTPEKRLEWVAFMSSGGSTYYPDSVKGRFTISRDNVRNILYLQMISLRSEDTAMYYCARGERYGSYWGQGTLVTVSA
VL: DIQMTQSSSYLSVSLGGRVTITCKASDHINNWLAWYQQKPGNAPRLLISGATSLETGVPSRFSGSGSGKDYTLSITSLQTEDVATYYCQQYWSTPFTFGSGTKLEIK
notes: also called No.120 antibody; murine 120 antibody

- IC50(pM), inhibition of IL-17A-induced IL-6 secretion from Hela cells, Experiment 1 [1]: 14.7 pM
- IC50(pM), inhibition of IL-17A-induced IL-6 secretion from Hela cells, Experiment 2 [1]: 22 pM
- IC50(pM), inhibition of IL-17A-induced IL-6 secretion from Hela cells, Experiment 3 [1]: 44.6 pM
- Kd [3]: < 0.001 nM
- koff [3]: < 1e-05 s⁻¹
- kon [3]: 445000 M⁻¹ s⁻¹
B3: humanized anti-human IL-17A monoclonal antibody 120-Hu (antibody, human IgG1, kappa, V domains shown)
VH: EVQLVESGGGLVQPGGSLRLSCAASGFTFSSFDMSWGRQAPGKRLEWVAFMSSGGSTYYPDSVKGRFTISRDNSKNTLYLQMNSLRAEDTAVYYCARGERYGSYWGQGTLVTVSS
VL: DIQMTQSPSSLSASVGDRVTITCKASDHINNWLAWYQQKPGKAPKLLISGATSLETGVPSRFSGSGSGTDYTLTISSLQPEDFATYYCQQYWSTPFTFGSGTKLEIKR
notes: Human IgG1; also called 120-Humanization; humanized 120 antibody

Reference: US20190161544A1 (SUNSHINE GUOJIAN PHARMACEUTICAL SHANGHAI, published 2019)
